Measurements from patent publication US20230212319A1, “NOVEL ANTIGEN BINDING DOMAINS AND SYNTHETIC ANTIGEN RECEPTORS INCORPORATING THE SAME” (University of Southern California, priority 2020, published 2023).

B1: 22003 (protein)
chain: MALPVTALLLPLALLLHAARPLEGKPIPNPLLGLDSTGSGEDLKNVFPPEVAVFEPSKAEIAHTQKATLVCLATGFYPDHVELSWWVNGKEVHSGVCTDPQPLKEQPALNDSRYCLSSRLRVSATFWQNPRNHFRCQVQFYGLSENDEWTQDRAKPVTQIVSAEAWGRADCGITSASYHQGVLSATILYEILLGKATLYAVLVSALVLMAMVKRKDSRGRAKRSGSGATNFSLLKQAGDVEENPGPTSTMALPVTALLLPLALLLHAARPQLQLQESGPGLVKPSETLSLTCTVSGDSISSGDYYWGWIRQPPGKGLEWIGHIYYSGVTYYNPSLKSRVTISVDTSRNQFSLKLSSVTAADTAVYYCTREDSSNWRSRGQGTLVTVSSLESGGGGSFEEVQLLESGGGLVQPGGSLRLSCAASGFTFSSYAMSWVRQAPGKGLEWVSSISGSGDYIYYADSVKGRFTISRDISKNTLYLQMNSLRAEDTAVYYCAKEGTGANSSLADYRGQGTLVTVSSTREQKLISEEDGSGIQNPDPAVYQLRDSKSSDKSVCLFTDFDSQTNVSQSKDSDVYITDKCVLDMRSMDFKSNSAVAWSNKSDFACANAFNNSIIPEDTFFPSSDVPCDVKLVEKSFETDTNLNFQNLSVIGFRILLLKVAGFNLLMTLRLWSSRAKRSGSGVKQTLNFDLLKLAGDVESNPGPSRGHMTEYKPTVRLATRDDVPRAVRTLAAAFADYPATRHTVDPDRHIERVTELQELFLTRVGLDIGKVWVADDGAAVAVWTTPESVEAGAVFAEIGPRMAELSGSRLAAQQQMEGLLAPHRPKEPAWFLATVGVSPDHQGKGLGSAVVLPGVEAAERAGVPAFLETSAPRNLPFYERLGFTVTADVEVPEGPRTWCMTRKPGA
B2: 22118 (protein)
chain: MALPVTALLLPLALLLHAARPEVQLVESGGGLVQPGGSLRLSCTFSGGTFSSYTMGWFRQAPGKEREFVAEVRWGGVTTYSNSLKDRFSISEDSVKNAVYLQMNSLKPEDTAVYYCAAVRQMYMTVVPDYWGQGTLVTVSSSGGGGSDIQMTQSPSSLSASVGDRVTITCKASDHINNWLAWYQQKPGKAPKLLIYGATTLETGVPSRFSGSGSGTDFTLTISSLQPEDFATYYCQQSWNTPWTFGQGTKVEIKRLEDLKNVFPPEVAVFEPSEAEISHTQKATLVCLATGFYPDHVELSWWVNGKEVHSGVCTDPQPLKEQPALNDSRYCLSSRLRVSATFWQNPRNHFRCQVQFYGLSENDEWTQDRAKPVTQIVSAEAWGRADCGFTSESYQQGVLSATILYEILLGKATLYAVLVSALVLMAMVKRKDSRGRAKRSGSGATNFSLLKQAGDVEENPGPTSMDWIWRILFLVGAATGAHSFEVQLVESGGGLVQPGGSLRLSCAASGYAFSSYWVNWVRQAPGKGLEWVAQIYPGDGDTNYNGKFKGRFTISRDNSKNTLYLQMNSLRAEDTAVYYCARSITTVVGCAMDYWGQGTLVTVSSTRIQNPDPAVYQLRDSKSSDKSVCLFTDFDSQTNVSQSKDSDVYITDKCVLDMRSMDFKSNSAVAWSNKSDFACANAFNNSIIPEDTFFPSPESSCDVKLVEKSFETDTNLNFQNLSVIGFRILLLKVAGFNLLMTLRLWSSRAKRSGSGVKQTLNFDLLKLAGDVESNPGPSRGHMTEYKPTVRLATRDDVPRAVRTLAAAFADYPATRHTVDPDRHIERVTELQELFLTRVGLDIGKVWVADDGAAVAVWTTPESVEAGAVFAEIGPRMAELSGSRLAAQQQMEGLLAPHRPKEPAWFLATVGVSPDHQGKGLGSAVVLPGVEAAERAGVPAFLETSAPRNLPFYERLGFTVTADVEVPEGPRTWCMTRKPGA
B3: 22004 (protein)
chain: MALPVTALLLPLALLLHAARPLEGKPIPNPLLGLDSTGSGEDLKNVFPPEVAVFEPSKAEIAHTQKATLVCLATGFYPDHVELSWWVNGKEVHSGVCTDPQPLKEQPALNDSRYCLSSRLRVSATFWQNPRNHFRCQVQFYGLSENDEWTQDRAKPVTQIVSAEAWGRADCGITSASYHQGVLSATILYEILLGKATLYAVLVSALVLMAMVKRKDSRGRAKRSGSGATNFSLLKQAGDVEENPGPTSTMALPVTALLLPLALLLHAARPQLQLQESGPGLVKPSETLSLTCTVSGDSISSGDYYWGWIRQPPGKGLEWIGHIYYSGVTYYNPSLKSRVTISVDTSRNQFSLKLSSVTAADTAVYYCTREDSSNWRSRGQGTLVTVSSLESGGGGSFEQVQLVESGGGLVQPGGSLRLSCAASGFTFTNHAMSWVRQAPGKGLELVSSISGNGRTTYYADSVKGRFTISRDISKNTLDLQMNSLRAEDTAVYYCAKDGGETLVDSRGQGTLVTVSSTREQKLISEEDGSGIQNPDPAVYQLRDSKSSDKSVCLFTDFDSQTNVSQSKDSDVYITDKCVLDMRSMDFKSNSAVAWSNKSDFACANAFNNSIIPEDTFFPSSDVPCDVKLVEKSFETDTNLNFQNLSVIGFRILLLKVAGFNLLMTLRLWSSRAKRSGSGVKQTLNFDLLKLAGDVESNPGPSRGHMTEYKPTVRLATRDDVPRAVRTLAAAFADYPATRHTVDPDRHIERVTELQELFLTRVGLDIGKVWVADDGAAVAVWTTPESVEAGAVFAEIGPRMAELSGSRLAAQQQMEGLLAPHRPKEPAWFLATVGVSPDHQGKGLGSAVVLPGVEAAERAGVPAFLETSAPRNLPFYERLGFTVTADVEVPEGPRTWCMTRKPGA
B4: 22005 (protein)
chain: MALPVTALLLPLALLLHAARPLEGKPIPNPLLGLDSTGSGEDLKNVFPPEVAVFEPSKAEIAHTQKATLVCLATGFYPDHVELSWWVNGKEVHSGVCTDPQPLKEQPALNDSRYCLSSRLRVSATFWQNPRNHFRCQVQFYGLSENDEWTQDRAKPVTQIVSAEAWGRADCGITSASYHQGVLSATILYEILLGKATLYAVLVSALVLMAMVKRKDSRGRAKRSGSGATNFSLLKQAGDVEENPGPTSTMALPVTALLLPLALLLHAARPEVQLVESGGGLVQPGGSLRLSCAASGFNIKDTCIGWVRRAPGKEEELVAKICKYSGHTRYADSVKGRFTISADTSKNTAYLQMNSLRAEDTAVYYCAAVSVRDGHYNYWGQGTTVTVSSTREQKLISEEDGSGIQNPDPAVYQLRDSKSSDKSVCLFTDFDSQTNVSQSKDSDVYITDKCVLDMRSMDFKSNSAVAWSNKSDFACANAFNNSIIPEDTFFPSSDVPCDVKLVEKSFETDTNLNFQNLSVIGFRILLLKVAGFNLLMTLRLWSSRAKRSGSGVKQTLNFDLLKLAGDVESNPGPSRGHMTEYKPTVRLATRDDVPRAVRTLAAAFADYPATRHTVDPDRHIERVTELQELFLTRVGLDIGKVWVADDGAAVAVWTTPESVEAGAVFAEIGPRMAELSGSRLAAQQQMEGLLAPHRPKEPAWFLATVGVSPDHQGKGLGSAVVLPGVEAAERAGVPAFLETSAPRNLPFYERLGFTVTADVEVPEGPRTWCMTRKPGA

Assays:
Type in all cases: cell-based
L363 cells = experiment: JNG assay, co-culture with L363 cells; conditions: co-culture with L363
Outline: (§1)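 Read-out is NFAT-driven GFP measured by flow cytometry after ~4–18 h co-culture of SAR-expressing JNG cells with target cells (E:T about 1:2). SARs were introduced by lentiviral spinfection and selected with puromycin or blasticidin when possible; scores (+/- to 5+ ≈ 5–50% GFP+) are relative to parental JNG cells.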

DAUDI = experiment: JNG assay, co-culture with DAUDI cells
Procedure: Cellular supernatant is collected and assayed for the induction of cytokines (e.g., IL2).
JNG (Jurkat cells expressing EGFP under an NFAT promoter) were infected with lentiviral vectors encoding different single chain and multi-chain SARs by spinfection in the presence of 8 µg/ml of Polybrene® (Sigma, Catalog no. H9268). The Jurkat-NFAT-GFP cells are engineered in such a way that the IL-2 promoter, which carries NFAT binding sites, is cloned upstream of the GFP gene. These cells have been used to study signaling via TCR and CAR. The different SARs were stably expressed in Jurkat NFAT-GFP cells by lentiviral mediated gene transfer, followed by selection with puromycin or blasticidin. No drug selection was used in case the construct lacked an antibiotic resistance gene. The SAR-expressing Jurkat-NFAT-GFP cells were cocultured with the target cells at E:T ratio of approximately 1:2 for approximately 4 hours to 18 hours. When the interaction between SIRs and their target antigen results in activation of the NFAT pathway, GFP expression is induced. […] GFP expression was monitored by FACS analysis. The Jurkat-NFAT-GFP (parental) cells were used as control. The structure of different constructs can be determined based on their names. […] The sequence of the other constructs in the table can be similarly determined from their names and by referring to the different Tables of this disclosure that provide the names and SEQ ID NO of the different modules. Alternatively, the composition and modular architecture of the different SAR constructs can be determined from their sequences by bioinformatics tools, including using nucleic acid and amino acids homology searches. A SAR is considered positive in the assay in case the SAR expressing Jurkat-NFAT-GFP cells show greater % GFP positive cells when cultured with the target cell line as compared to parental Jurkat-NFAT-GFP cells. […] In general, the number +/-, +, 2+, 3+, 4+, 5+ refer to approximately 5%, 10%, 20%, 30%, 40% and 50% GFP positive cells. […]

Nalm6 cells = experiment: JNG assay, co-culture with Nalm6 cells; conditions: co-culture with Nalm6
Outline: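 Jurkat NFAT-GFP reporter cells stably expressing lentivirally transduced SARs, drug-selected where possible, were co-cultured with target cells at E:T ≈1:2 for ~4–18 h. GFP measured by FACS; scored +/- to 5+ (~5–50% GFP+ cells) above parental reporter cells.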

RAJI cells = experiment: JNG assay, co-culture with RAJI cells; conditions: JNG cells expressing construct, co-culture with Raji
Outline: as §1

RAJI-CD19-KO cells = experiment: JNG assay, co-culture with RAJI-CD19-KO cells; conditions: co-culture with Raji-CD19-KO
Outline: as §1

RS;411 = experiment: JNG assay, co-culture with RS;411 cells; conditions: co-culture with RS411
Outline: as §1

LoVo = experiment: JNG NFAT-GFP assay, co-culture with LoVo cells

Molecule	NFAT-GFP ASSAY: L363 (L363 cells)	NFAT-GFP ASSAY: Daudi (DAUDI)	NFAT-GFP ASSAY: Nalm6 (Nalm6 cells)	NFAT-GFP ASSAY: Raji (RAJI cells)	NFAT-GFP ASSAY: Raji-CD19-KO (RAJI-CD19-KO cells)	NFAT-GFP ASSAY: RS411 (RS;411)	NFAT-GFP ASSAY: LoVo (LoVo)
B1	+ (refer to approximately 5%, 10%, 20%, 30%, 40% and 50% GFP positive cells)	+/- (refer to approximately 5%, 10%, 20%, 30%, 40% and 50% GFP positive cells)	+/- (refer to approximately 5%, 10%, 20%, 30%, 40% and 50% GFP positive cells)	+ (refer to approximately 5%, 10%, 20%, 30%, 40% and 50% GFP positive cells)			
B2		3+ (refer to approximately 5%, 10%, 20%, 30%, 40% and 50% GFP positive cells)	3+ (refer to approximately 5%, 10%, 20%, 30%, 40% and 50% GFP positive cells)	3+ (refer to approximately 5%, 10%, 20%, 30%, 40% and 50% GFP positive cells)	2+ (refer to approximately 5%, 10%, 20%, 30%, 40% and 50% GFP positive cells)	3+ (refer to approximately 5%, 10%, 20%, 30%, 40% and 50% GFP positive cells)	
B3	+ (refer to approximately 5%, 10%, 20%, 30%, 40% and 50% GFP positive cells)	+/- (refer to approximately 5%, 10%, 20%, 30%, 40% and 50% GFP positive cells)	+/- (refer to approximately 5%, 10%, 20%, 30%, 40% and 50% GFP positive cells)	+ (refer to approximately 5%, 10%, 20%, 30%, 40% and 50% GFP positive cells)			
B4							+/- (refer to approximately 5%, 10%, 20%, 30%, 40% and 50% GFP positive cells)
